From article PMC6458996, “Sostdc1: A soluble BMP and Wnt antagonist that is induced by the interaction between myeloma cells and osteoblast lineage cells” (Bone, 2019)

How the values were obtained:
[1] = molecular target: recombinant murine low density lipoprotein receptor-related protein 6 (LRP6) (mouse) (UniProt O88572); experiment: BLI; Amine reactive 2nd generation (AR2G) biosensors (ForteBio, BLItz); analyte at multiple concentrations from 0 to 100 ug/ml; global fit to a simple 1:1 Langmuir model; which partner was immobilised is not stated outright (the legend speaks of 100 ug/ml of Sostdc1 binding to rmLRP6, BMP2 and BMP7)
Chain of recombinant murine low density lipoprotein receptor-related protein 6 (LRP6) (mouse) (O88572 20-1613): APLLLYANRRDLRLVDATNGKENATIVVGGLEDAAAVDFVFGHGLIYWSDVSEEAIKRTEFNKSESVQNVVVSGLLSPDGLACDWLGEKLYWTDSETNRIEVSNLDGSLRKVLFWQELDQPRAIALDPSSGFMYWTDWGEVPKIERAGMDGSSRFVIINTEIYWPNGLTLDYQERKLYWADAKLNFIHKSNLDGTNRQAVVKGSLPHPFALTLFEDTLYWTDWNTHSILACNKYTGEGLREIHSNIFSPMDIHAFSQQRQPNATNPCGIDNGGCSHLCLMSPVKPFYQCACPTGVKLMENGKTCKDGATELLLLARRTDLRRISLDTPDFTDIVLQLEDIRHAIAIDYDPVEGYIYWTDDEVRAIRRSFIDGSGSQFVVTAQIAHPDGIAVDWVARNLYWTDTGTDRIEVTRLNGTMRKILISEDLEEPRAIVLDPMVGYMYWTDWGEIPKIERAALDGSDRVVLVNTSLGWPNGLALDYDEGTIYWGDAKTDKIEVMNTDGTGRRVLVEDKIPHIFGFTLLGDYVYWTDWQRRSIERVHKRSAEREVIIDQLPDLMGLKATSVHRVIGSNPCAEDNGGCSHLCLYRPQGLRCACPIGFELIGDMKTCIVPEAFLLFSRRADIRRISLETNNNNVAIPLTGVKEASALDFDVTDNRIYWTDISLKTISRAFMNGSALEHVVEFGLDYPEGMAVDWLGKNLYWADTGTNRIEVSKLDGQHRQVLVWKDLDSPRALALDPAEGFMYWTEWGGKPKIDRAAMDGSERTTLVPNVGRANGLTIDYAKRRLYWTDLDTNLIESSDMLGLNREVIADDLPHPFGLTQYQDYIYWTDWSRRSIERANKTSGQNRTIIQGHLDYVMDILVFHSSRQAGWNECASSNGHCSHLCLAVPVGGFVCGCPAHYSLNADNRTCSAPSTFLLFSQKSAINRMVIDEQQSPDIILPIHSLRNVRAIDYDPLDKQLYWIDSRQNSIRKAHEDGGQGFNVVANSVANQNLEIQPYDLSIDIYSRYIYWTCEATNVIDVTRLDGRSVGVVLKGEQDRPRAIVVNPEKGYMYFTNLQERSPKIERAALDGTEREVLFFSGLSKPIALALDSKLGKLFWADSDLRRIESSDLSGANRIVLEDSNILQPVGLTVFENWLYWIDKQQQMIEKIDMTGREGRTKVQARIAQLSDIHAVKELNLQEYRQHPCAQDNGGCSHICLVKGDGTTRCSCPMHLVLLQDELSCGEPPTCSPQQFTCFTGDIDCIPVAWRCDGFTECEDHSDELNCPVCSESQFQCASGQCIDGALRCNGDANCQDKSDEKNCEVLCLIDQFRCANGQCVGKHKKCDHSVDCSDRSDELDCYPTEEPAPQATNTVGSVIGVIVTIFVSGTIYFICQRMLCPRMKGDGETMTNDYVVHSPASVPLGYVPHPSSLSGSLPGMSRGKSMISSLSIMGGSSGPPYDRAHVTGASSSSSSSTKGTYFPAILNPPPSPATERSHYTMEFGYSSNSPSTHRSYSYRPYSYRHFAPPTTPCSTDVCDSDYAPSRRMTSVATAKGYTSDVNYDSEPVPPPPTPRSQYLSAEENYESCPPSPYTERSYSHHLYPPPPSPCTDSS

[2] = molecular target: T1, recombinant murine Sostdc1 (sclerostin domain containing 1) (mouse, UniProt Q9CQN4 24-206); experiment: as above; conditions: both partners purified
T1 construct: sclerostin domain containing 1 (Sostdc1), murine recombinant protein; also called recombinant Sostdc1; murine recombinant Sostdc1
T1 sequence (looked up): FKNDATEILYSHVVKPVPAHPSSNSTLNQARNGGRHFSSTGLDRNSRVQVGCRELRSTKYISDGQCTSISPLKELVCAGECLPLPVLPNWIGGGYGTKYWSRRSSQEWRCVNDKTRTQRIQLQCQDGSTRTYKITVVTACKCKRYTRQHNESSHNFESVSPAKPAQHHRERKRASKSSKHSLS

“recombinant murine Sostdc1 (sclerostin domain containing 1) (from UniProt Q9CQN4 24-206) (natural protein)” showed a Kd [1] of 0.85 nM.

B1: bone morphogenetic protein 7 (BMP7) (ligand, UniProt P18075 293-431, looked up)
chain: STGSKQRSQNRSKTPKNQEALRMANVAENSSSDQRQACKKHELYVSFRDLGWQDWIIAPEGYAAYYCEGECAFPLNSYMNATNHAIVQTLVHFINPETVPKPCCAPTQLNAISVLYFDDSSNVILKKYRNMVVRACGCH
notes: BMP7, recombinant protein; also called ligand BMP7 protein
B1 gave a Kd [2] of less than 0.001 nM.

B2: bone morphogenetic protein 2 (BMP2) (ligand, UniProt P12643 283-396, looked up)
chain: QAKHKQRKRLKSSCKRHPLYVDFSDVGWNDWIVAPPGYHAFYCHGECPFPLADHLNSTNHAIVQTLVNSVNSKIPKACCVPTELSAISMLYLDENEKVVLKNYQDMVVEGCGCR
notes: BMP2, recombinant protein; also called BMP2 ligand protein
For B2, the Kd [2] was 9.57 nM.
